Biological target: HPV-16Q150A peptide (Human papillomavirus type 16)
Test: affinity purification with mass spectrometry; biotinylated peptide (500 ug) on streptavidin magnetic sepharose beads; pre-cleared HaCaT cell extract, 2 h at 4°C; lysis buffer 50 mM HEPES pH 7.4, 150 mM NaCl, 1 mM MgCl2, 1% Triton X-100; trypsin digest and mass spectroscopy; pooled from at least two pull-downs

B1: ZO-2 (natural protein)
chain: MPVRGDRGFPPRRELSGWLRAPGMEELIWEQYTVTLQKDSKRGFGIAVSGGRDNPHFENGETSIVISDVLPGGPADGLLQENDRVVMVNGTPMEDVLHSFAVQQLRKSGKVAAIVVKRPRKVQVAALQASPPLDQDDRAFEVMDEFDGRSFRSGYSERSRLNSHGGRSRSWEDSPERGRPHERARSRERDLSRDRSRGRSLERGLDQDHARTRDRSRGRSLERGLDHDFGPSRDRDRDRSRGRSIDQDYERAYHRAYDPDYERAYSPEYRRGARHDARSRGPRSRSREHPHSRSPSPEPRGRPGPIGVLLMKSRANEEYGLRLGSQIFVKEMTRTGLATKDGNLHEGDIILKINGTVTENMSLTDARKLIEKSRGKLQLVVLRDSQQTLINIPSLNDSDSEIEDISEIESNRSFSPEERRHQYSDYDYHSSSEKLKERPSSREDTPSRLSRMGATPTPFKSTGDIAGTVVPETNKEPRYQEDPPAPQPKAAPRTFLRPSPEDEAIYGPNTKMVRFKKGDSVGLRLAGGNDVGIFVAGIQEGTSAEQEGLQEGDQILKVNTQDFRGLVREDAVLYLLEIPKGEMVTILAQSRADVYRDILACGRGDSFFIRSHFECEKETPQSLAFTRGEVFRVVDTLYDGKLGNWLAVRIGNELEKGLIPNKSRAEQMASVQNAQRDNAGDRADFWRMRGQRSGVKKNLRKSREDLTAVVSVSTKFPAYERVLLREAGFKRPVVLFGPIADIAMEKLANELPDWFQTAKTEPKDAGSEKSTGVVRLNTVRQIIEQDKHALLDVTPKAVDLLNYTQWFPIVIFFNPDSRQGVKTMRQRLNPTSNKSSRKLFDQANKLKKTCAHLFTATINLNSANDSWFGSLKDTIQHQQGEAVWVSEGKMEGMDDDPEDRMSYLTAMGADYLSCDSRLISDFEDTDGEGGAYTDNELDEPAEEPLVSSITRSSEPVQHEESIRKPSPEPRAQMRRAASSDQLRDNSPPPAFKPEPPKAKTQNKEESYDFSKSYEYKSNPSAVAGNETPGASTKGYPPPVAAKPTFGRSILKPSTPIPPQEGEEVGESSEEQDNAPKSVLGKVKIFEKMDHKARLQRMQELQEAQNARIEIAQKHPDIYAVPIKTHKPDPGTPQHTSSRPPEPQKAPSRPYQDTRGSYGSDAEEEEYRQQLSEHSKRGYYGQSARYRDTEL
reduction in binding against the HPV-16 peptide: 25%
